Data: paper PMC3154745

T1: Full length HP1a, pET11a construct (AUC) (D. melanogaster), P05205
T1 chain: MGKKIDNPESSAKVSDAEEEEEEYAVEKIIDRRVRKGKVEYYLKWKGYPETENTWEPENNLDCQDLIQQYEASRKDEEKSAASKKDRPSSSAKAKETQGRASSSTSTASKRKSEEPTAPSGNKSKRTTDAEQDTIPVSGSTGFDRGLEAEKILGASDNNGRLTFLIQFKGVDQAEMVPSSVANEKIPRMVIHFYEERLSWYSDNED


Columns and labels:
[1] = target: PIWI peptide with HP2 pentamer, N-terminal fluorescein (D. melanogaster); assay: fluorescence polarisation
[2] = target: HP2 peptide with PIWI pentamer, N-terminal fluorescein (D. melanogaster); assay: fluorescence polarisation
[3] = target: T1, Full length HP1a, pET11a construct …; assay: AUC; settings: remark: other sources report otherwise

Kd [1] [nM]	Kd [2] [nM]	Kd [3] [nM]	Binder
21300	990	–	HP1a-CSD (residues 131-206), wild type (domain or fragment) EQDTIPVSGSTGFDRGLEAEKILGASDNNGRLTFLIQFKGVDQAEMVPSSVANEKIPRMVIHFYEERLSWYSDNED
–	–	1400	Full length HP1a, pET11a construct (AUC), P05205 1-206 (natural protein) MGKKIDNPESSAKVSDAEEEEEEYAVEKIIDRRVRKGKVEYYLKWKGYPETENTWEPENNLDCQDLIQQYEASRKDEEKSAASKKDRPSSSAKAKETQGRASSSTSTASKRKSEEPTAPSGNKSKRTTDAEQDTIPVSGSTGFDRGLEAEKILGASDNNGRLTFLIQFKGVDQAEMVPSSVANEKIPRMVIHFYEERLSWYSDNED
